T1: NUPR1 (recombinant, purified) (UniProt O60356 1-82)
T1 chain: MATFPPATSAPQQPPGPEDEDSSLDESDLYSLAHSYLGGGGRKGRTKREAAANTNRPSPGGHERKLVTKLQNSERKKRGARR

B1: NUPR1 (recombinant, purified) (natural protein, UniProt O60356 1-82, looked up)
chain: MATFPPATSAPQQPPGPEDEDSSLDESDLYSLAHSYLGGGGRKGRTKREAAANTNRPSPGGHERKLVTKLQNSERKKRGARR
notes: Nuclear Protein 1 (NUPR1), described as an intrinsically disordered protein of 82 amino acids with two tyrosines (Tyr30, Tyr36); also called Nuclear Protein 1; rNUPR1; source: expressed and purified as described (12)
B2: importin-α3 (residues 1–520), recombinant (domain or fragment, UniProt O00629 1-520, looked up)
chain: MADNEKLDNQRLKNFKNKGRDLETMRRQRNEVVVELRKNKRDEHLLKRRNVPHEDICEDSDIDGDYRVQNTSLEAIVQNASSDNQGIQLSAVQAARKLLSSDRNPPIDDLIKSGILPILVHCLERDDNPSLQFEAAWALTNIASGTSEQTQAVVQSNAVPLFLRLLHSPHQNVCEQAVWALGNIIGDGPQCRDYVISLGVVKPLLSFISPSIPITFLRNVTWVMVNLCRHKDPPPPMETIQEILPALCVLIHHTDVNILVDTVWALSYLTDAGNEQIQMVIDSGIVPHLVPLLSHQEVKVQTAALRAVGNIVTGTDEQTQVVLNCDALSHFPALLTHPKEKINKEAVWFLSNITAGNQQQVQAVIDANLVPMIIHLLDKGDFGTQKEAAWAISNLTISGRKDQVAYLIQQNVIPPFCNLLTVKDAQVVQVVLDGLSNILKMAEDEAETIGNLIEECGGLEKIEQLQNHENEDIYKLAYEIIDQFFSSDDIDEDPSLVPEAIQGGTFGFNSSANVPTEGFQ
notes: importin-α3 (KPNA4), residues 1–520, codon-optimized synthetic vector (Nzytech); called a 58 kDa protein with 6 tryptophans; also called KPNA4; importin-alpha3; source: final Superdex G200 16/60

Experiments:
[1] = biological target: B2; assay: ITC; as a3 with ZZW-115 kept constant at 100 μM during the titration; analysed as an apparent quasibinary system and as an exact ternary system; 25°C; details: both partners purified
[2] = biological target: B2; assay: ITC; importin-α3 (100–110 μM) in the syringe, NUPR1 (5–10 μM) in the calorimetric cell, Tris 50 mM pH 8, 25°C; single binding site model (1:1); details: both partners purified
[3] = biological target: T1, NUPR1 (recombinant, purified); assay: ITC; 25°C, with ZZW-115
[4] = biological target: B1; assay: ITC; as a3 with ZZW-115 kept constant at 100 μM during the titration; analysed as an apparent quasibinary system and as an exact ternary system; 25°C; details: both partners purified
[5] = biological target: B1; assay: ITC; importin-α3 (100–110 μM) in the syringe, NUPR1 (5–10 μM) in the calorimetric cell, Tris 50 mM pH 8, 25°C; single binding site model (1:1); details: both partners purified

Row | Binder | Kd [1] [µM] | Ka [2] [M⁻¹] | Kd [2] [µM] | Ka [3] [M⁻¹] | fold reduction in affinity with 100 μM ZZW-115 (ternary equilibrium analysis) [4] [fold] | dH [5] [kcal/mol]
1 | B1 | 35 | 690000 | 1.4 |  |  | 
2 | B2 |  |  |  | 28000 | 21 | -13.7

Source: PMC7526551 (JCI Insight, 2020)
